Measurements published in patent publication US20180118814A1.

Tests used:
[1] = molecular target: HBsAg-L antigen (Beacle, BCL-AG-001) (hepatitis B virus); experiment: ELISA, plate coated with 1 µg/mL HBsAg-L, anti-human kappa-HRP detection, purified protein
[2] = molecular target: HBsAg-L antigen (Beacle, BCL-AG-001) (hepatitis B virus); experiment: ELISA, plate coated with 1 µg/mL HBsAg-L, anti-human kappa-HRP detection, cell culture supernatant

B1: HBV24G (antibody, human IgG1, kappa, V domains shown)
VH: QVQLVQSGAEVKAPGASVKVSCKASGYTFTSAWMNWVRQAPGQGLEWMGRIYPSGGSTSYAQKFQGRVTMTADKSTSTVYMELSSLRSEDTAVYYCAREYRVARWGQGTLVTVSS
VL: DIVMTQTPLSLSVTPGQPASISCKSSQSLLYSNGKTYLNWLLQKPGQPPQRLIYLVSNRDSGVPDRFSGSGSGTDFTLKISRVEAEDVGVYYCVQGTHFPQTFGGGTKVEIKR
EC50 [1]: 0.061 nM | EC50 [2]: 0.057 nM
